Assay results: article PMC9120032, “SARS-CoV-2 ORF6 disrupts nucleocytoplasmic trafficking to advance viral replication” (Communications Biology, 2022)

T1: bacterially purified recombinant STAT1 protein (human, UniProt P42224 1-750)
T1 construct: human STAT1, full length, subcloned into pGEX6P2 from the pcDNA5/FRT/3xFLAG expression vector; The methods tell in general that GST tags were cleaved with PreScission or thrombin; also called STAT1 recombinant protein; Flag-h-STAT1; source: bacterially expressed recombinant protein, purified; not shown: Flag, N-terminal, kept
T1 sequence: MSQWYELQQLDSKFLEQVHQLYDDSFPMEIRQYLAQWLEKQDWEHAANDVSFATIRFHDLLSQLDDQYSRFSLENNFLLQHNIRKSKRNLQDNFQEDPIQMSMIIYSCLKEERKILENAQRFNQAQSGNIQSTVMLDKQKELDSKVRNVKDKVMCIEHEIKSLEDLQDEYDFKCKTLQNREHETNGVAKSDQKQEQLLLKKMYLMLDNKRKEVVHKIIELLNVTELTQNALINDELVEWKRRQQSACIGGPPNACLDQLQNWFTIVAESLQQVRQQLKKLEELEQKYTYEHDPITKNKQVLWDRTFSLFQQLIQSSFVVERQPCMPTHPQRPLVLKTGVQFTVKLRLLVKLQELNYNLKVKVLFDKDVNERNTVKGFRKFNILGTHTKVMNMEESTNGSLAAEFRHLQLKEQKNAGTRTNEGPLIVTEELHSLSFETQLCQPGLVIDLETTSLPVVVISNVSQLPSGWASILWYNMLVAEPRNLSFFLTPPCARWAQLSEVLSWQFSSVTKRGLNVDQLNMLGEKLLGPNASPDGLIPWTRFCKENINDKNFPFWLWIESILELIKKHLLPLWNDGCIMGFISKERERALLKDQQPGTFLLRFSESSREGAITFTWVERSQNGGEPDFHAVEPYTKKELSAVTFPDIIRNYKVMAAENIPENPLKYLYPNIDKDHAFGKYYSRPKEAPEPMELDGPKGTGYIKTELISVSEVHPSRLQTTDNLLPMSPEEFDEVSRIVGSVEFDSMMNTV


Experiments:
[1] = biological target: T1, bacterially purified recombinant STAT1 …; assay: pull-down; GST fusion proteins immobilised on glutathione-Sepharose 4B beads; recombinant proteins (100 pmol each) in 200 μL transport buffer (20 mM HEPES pH 7.3, 110 mM potassium acetate, 2 mM magnesium acetate, 1 mM EGTA, 1 mM DTT) with 0.1% Triton X-100, 4 °C, 1 h; five washes; western blot; details: both partners purified
[2] = biological target: T2, Flag-importin α1 recombinant protein (human, UniProt P52292 1-529); assay: as above; details: both partners purified
T2 construct: human importin α1 (KPNA2); also called Flag-Impα1; FLAG-h-importin α1; source: bacterially expressed recombinant protein, purified; not shown: FLAG, N-terminal, kept

Binder	binding result [1]	binding result [2]
YSQLDEEQPMEID (SARS-CoV-2 ORF6, the 13 amino acids 49-61 of the C-terminal region (M0); also called GST-M0-GFP; M0; not shown: GST, N-terminal, kept; GFP, C-terminal, kept) [GST-GFP fused with the C-terminal peptide of ORF6 wild type (49-61 amino acids)]	binds	
GST-GFP-fused ORF6 full-length protein (natural protein, Held on glutathione Sepharose beads by its GST; also called GST-GFP-ORF6; GST-GFP-ORF6 wild type (WT); not shown: GST, N-terminal, kept; GFP, N-terminal, kept) MFHLVDFQVTIAEILLIIMRTFKVSIWNLDYIINLIIKNLSKSLTENKYSQLDEEQPMEID		binds
